Data: PMC9482650, “Quantitative fragmentomics allow affinity mapping of interactomes” (Nature Communications, 2022)

What was measured:
Experiment in all cases: holdup assay
Design in all cases: key: below the threshold = too weak to quantify, mostly under pKd 3.1 to 4
HTRA4, P83105 = biological target: T1, HTRA4, P83105
T1 sequence (P83105 378-476, limits assumed, looked up): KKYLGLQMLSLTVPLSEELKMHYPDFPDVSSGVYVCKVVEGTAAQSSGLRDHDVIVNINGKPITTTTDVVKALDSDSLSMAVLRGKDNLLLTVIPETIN

NHERF3_1, Q5T2W1 = biological target: T2, NHERF3_1, Q5T2W1
T2 sequence (Q5T2W1 4-100, limits assumed, looked up): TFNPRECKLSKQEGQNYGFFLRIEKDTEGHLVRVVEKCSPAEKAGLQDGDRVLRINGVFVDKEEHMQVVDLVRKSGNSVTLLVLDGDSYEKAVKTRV

MAST2, Q6P0Q8 = biological target: MAST2, Q6P0Q8
RHPN1, Q8TCX5 = biological target: T3, RHPN1, Q8TCX5
T3 sequence (Q8TCX5 508-602, limits assumed, looked up): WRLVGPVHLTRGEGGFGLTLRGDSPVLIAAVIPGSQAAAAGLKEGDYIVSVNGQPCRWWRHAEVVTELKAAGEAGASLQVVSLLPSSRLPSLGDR

LIN7A, O14910 = biological target: T4, LIN7A, O14910
T4 sequence (O14910 103-200, limits assumed, looked up): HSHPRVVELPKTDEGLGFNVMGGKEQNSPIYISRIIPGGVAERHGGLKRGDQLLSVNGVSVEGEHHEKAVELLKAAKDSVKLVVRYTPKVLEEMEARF

Inadl_5, Q8NI35 = biological target: Inadl_5, Q8NI35
GRIP2_4, Q9C0E4 = biological target: GRIP2_4, Q9C0E4
ARHGEF12, Q9NZN5-2 = settings: plain residues with an end cap or a label only (N-terminal biotin on a linker: ttds)
DFNB31_1, Q9P202 = biological target: T5, DFNB31_1, Q9P202
T5 sequence (Q9P202 135-233, limits assumed, looked up): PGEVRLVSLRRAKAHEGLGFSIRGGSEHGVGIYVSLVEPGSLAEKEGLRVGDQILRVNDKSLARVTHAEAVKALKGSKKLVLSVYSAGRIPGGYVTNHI

PICK1, Q9NRD5 = biological target: PICK1, Q9NRD5
LAP2, Q96RT1 = biological target: LAP2, Q96RT1
DLG4_1, P78352 = biological target: DLG4_1, P78352
MAGI1_2, Q96QZ7 = biological target: MAGI1_2, Q96QZ7
PARD3_3, Q8TEW0 = settings: plain residues with an end cap or a label only (N-terminal biotin on a linker: ttds)
RADIL, Q96JH8 = biological target: T6, RADIL, Q96JH8
T6 sequence (Q96JH8 971-1071, limits assumed, looked up): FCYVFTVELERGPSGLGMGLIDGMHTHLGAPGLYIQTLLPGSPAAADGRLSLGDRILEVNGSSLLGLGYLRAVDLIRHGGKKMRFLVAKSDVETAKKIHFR

NHERF3_4, Q5T2W1 = biological target: T7, NHERF3_4, Q5T2W1
T7 sequence (Q5T2W1 373-468, limits assumed, looked up): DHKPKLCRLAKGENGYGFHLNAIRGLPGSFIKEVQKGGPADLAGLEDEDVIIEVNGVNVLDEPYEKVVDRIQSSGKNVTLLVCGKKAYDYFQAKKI

GRIP1_3, Q9Y3R0 = biological target: T8, GRIP1_3, Q9Y3R0
T8 sequence (Q9Y3R0 247-346, limits assumed, looked up): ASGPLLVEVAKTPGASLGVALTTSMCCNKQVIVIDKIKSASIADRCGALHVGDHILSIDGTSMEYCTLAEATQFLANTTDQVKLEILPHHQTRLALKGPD

LRRC7, Q96NW7 = biological target: T9, LRRC7, Q96NW7
T9 sequence (Q96NW7 1440-1537, limits assumed, looked up): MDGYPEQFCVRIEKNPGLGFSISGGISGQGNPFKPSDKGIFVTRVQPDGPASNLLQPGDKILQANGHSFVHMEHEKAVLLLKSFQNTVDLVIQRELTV

PDZRN3_1, Q9UPQ7 = biological target: T10, PDZRN3_1, Q9UPQ7
T10 sequence (Q9UPQ7 244-349, limits assumed, looked up): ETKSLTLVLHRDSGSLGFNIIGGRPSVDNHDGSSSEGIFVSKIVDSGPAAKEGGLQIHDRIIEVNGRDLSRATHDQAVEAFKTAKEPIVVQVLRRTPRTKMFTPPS

Inadl_2, Q8NI35 = biological target: Inadl_2, Q8NI35
IL16_1, Q14005 = biological target: IL16_1, Q14005
DLG1_2, Q12959 = biological target: DLG1_2, Q12959
PCLO, Q9Y6V0 = biological target: T11, PCLO, Q9Y6V0
T11 sequence (Q9Y6V0 4491-4600, limits assumed, looked up): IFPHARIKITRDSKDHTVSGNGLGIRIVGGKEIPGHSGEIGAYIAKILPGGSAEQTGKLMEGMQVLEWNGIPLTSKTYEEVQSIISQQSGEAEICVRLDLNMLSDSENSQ

MPP7, Q5T2T1 = biological target: T12, MPP7, Q5T2T1
T12 sequence (Q5T2T1 134-230, limits assumed, looked up): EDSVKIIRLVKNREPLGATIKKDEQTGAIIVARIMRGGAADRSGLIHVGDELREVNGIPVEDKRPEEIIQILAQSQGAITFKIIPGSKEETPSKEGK

[1] = plain residues with an end cap or a label only (N-terminal biotin on a linker: ttds)
[2] = plain residues with an end cap or a label only (N-terminal biotin on a linker: ahx)

Chain of GRIP2_4, Q9C0E4 (Q9C0E4 446-548): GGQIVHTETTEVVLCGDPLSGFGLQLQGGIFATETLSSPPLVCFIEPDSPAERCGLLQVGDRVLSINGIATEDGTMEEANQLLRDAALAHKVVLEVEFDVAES
Chain of Inadl_2, Q8NI35 (Q8NI35 238-335): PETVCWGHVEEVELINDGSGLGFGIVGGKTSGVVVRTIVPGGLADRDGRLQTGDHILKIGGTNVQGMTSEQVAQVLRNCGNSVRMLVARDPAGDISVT
Chain of DLG1_2, Q12959 (Q12959 314-412): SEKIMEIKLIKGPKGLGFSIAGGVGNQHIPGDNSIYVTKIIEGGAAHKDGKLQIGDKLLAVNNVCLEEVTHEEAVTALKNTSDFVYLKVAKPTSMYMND
Chain of MAGI1_2, Q96QZ7 (Q96QZ7 456-580): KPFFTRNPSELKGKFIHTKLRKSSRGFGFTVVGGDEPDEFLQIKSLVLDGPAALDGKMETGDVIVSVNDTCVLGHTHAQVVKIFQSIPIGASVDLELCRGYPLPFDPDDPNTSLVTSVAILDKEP
Chain of IL16_1, Q14005 (Q14005 210-306): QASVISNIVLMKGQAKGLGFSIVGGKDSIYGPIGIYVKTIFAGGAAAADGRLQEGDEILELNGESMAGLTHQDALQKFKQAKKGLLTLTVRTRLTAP
Chain of MAST2, Q6P0Q8 (Q6P0Q8 1099-1202): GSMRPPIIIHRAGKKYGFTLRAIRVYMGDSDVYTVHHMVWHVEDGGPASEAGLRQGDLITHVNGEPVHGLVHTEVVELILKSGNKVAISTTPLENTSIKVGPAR
Chain of LAP2, Q96RT1 (Q96RT1 other isoform, or with tags, fused parts or gaps): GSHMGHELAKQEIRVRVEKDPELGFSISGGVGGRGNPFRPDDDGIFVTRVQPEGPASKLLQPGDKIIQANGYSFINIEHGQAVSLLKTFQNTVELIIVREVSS
Chain of DLG4_1, P78352 (P78352 62-152): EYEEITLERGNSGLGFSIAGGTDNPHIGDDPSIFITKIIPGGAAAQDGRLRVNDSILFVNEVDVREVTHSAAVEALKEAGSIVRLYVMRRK
Chain of PICK1, Q9NRD5 (Q9NRD5 17-115): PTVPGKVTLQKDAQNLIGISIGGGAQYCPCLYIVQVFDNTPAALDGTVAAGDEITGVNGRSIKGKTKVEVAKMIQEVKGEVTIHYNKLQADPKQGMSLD
Chain of Inadl_5, Q8NI35 (Q8NI35 673-780): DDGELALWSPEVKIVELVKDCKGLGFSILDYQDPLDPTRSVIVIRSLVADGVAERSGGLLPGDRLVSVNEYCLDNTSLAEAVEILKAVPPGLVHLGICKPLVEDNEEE
Chain of PARD3_3, Q8TEW0 (Q8TEW0 582-685): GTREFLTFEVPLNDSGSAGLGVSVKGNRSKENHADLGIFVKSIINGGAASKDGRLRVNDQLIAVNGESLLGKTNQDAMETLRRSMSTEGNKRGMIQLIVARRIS
Chain of ARHGEF12, Q9NZN5-2 (Q9NZN5 other isoform, or with tags, fused parts or gaps): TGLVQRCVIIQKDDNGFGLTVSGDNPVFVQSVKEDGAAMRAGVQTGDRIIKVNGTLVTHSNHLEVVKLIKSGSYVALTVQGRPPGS

QRQARSETLV [HPV59-E6, Q81964]
pKd (HTRA4, P83105; [1]): 3.78
pKd (NHERF3_1, Q5T2W1; [1]): 4.82
pKd (MAST2, Q6P0Q8; [1]): 5.03
pKd (RHPN1, Q8TCX5; [1]): 3.94
pKd (LIN7A, O14910; [1]): below the threshold
pKd (Inadl_5, Q8NI35; [1]): 3.9
pKd (GRIP2_4, Q9C0E4; [1]): below the threshold
pKd (ARHGEF12, Q9NZN5-2): below the threshold
pKd (DFNB31_1, Q9P202; [1]): below the threshold
pKd (PICK1, Q9NRD5; [1]): 3.85
pKd (LAP2, Q96RT1; [1]): below the threshold
pKd (DLG4_1, P78352; [1]): 5.11
pKd (MAGI1_2, Q96QZ7; [1]): 6.04
pKd (PARD3_3, Q8TEW0): below the threshold
pKd (RADIL, Q96JH8; [1]): 4.47
pKd (NHERF3_4, Q5T2W1; [1]): below the threshold
pKd (GRIP1_3, Q9Y3R0; [1]): below the threshold
pKd (LRRC7, Q96NW7; [1]): below the threshold
pKd (PDZRN3_1, Q9UPQ7; [1]): 4.22
pKd (Inadl_2, Q8NI35; [1]): below the threshold
pKd (IL16_1, Q14005; [1]): below the threshold
pKd (DLG1_2, Q12959; [1]): 5.56
pKd (PCLO, Q9Y6V0; [1]): below the threshold
pKd (MPP7, Q5T2T1; [1]): below the threshold

SKPTRRETEV [HPV35-E6, P27228]
pKd (HTRA4, P83105; [1]): below the threshold
pKd (NHERF3_1, Q5T2W1; [1]): 4.04
pKd (MAST2, Q6P0Q8; [1]): 5.09
pKd (RHPN1, Q8TCX5; [1]): below the threshold
pKd (LIN7A, O14910; [1]): below the threshold
pKd (Inadl_5, Q8NI35; [1]): below the threshold
pKd (GRIP2_4, Q9C0E4; [1]): below the threshold
pKd (ARHGEF12, Q9NZN5-2): 4.06
pKd (DFNB31_1, Q9P202; [1]): below the threshold
pKd (PICK1, Q9NRD5; [1]): below the threshold
pKd (LAP2, Q96RT1; [1]): 3.69
pKd (DLG4_1, P78352; [1]): 5.09
pKd (MAGI1_2, Q96QZ7; [1]): 5.13
pKd (PARD3_3, Q8TEW0): below the threshold
pKd (RADIL, Q96JH8; [1]): below the threshold
pKd (NHERF3_4, Q5T2W1; [1]): below the threshold
pKd (GRIP1_3, Q9Y3R0; [1]): below the threshold
pKd (LRRC7, Q96NW7; [1]): 3.59
pKd (PDZRN3_1, Q9UPQ7; [1]): 4.89
pKd (Inadl_2, Q8NI35; [1]): below the threshold
pKd (IL16_1, Q14005; [1]): below the threshold
pKd (DLG1_2, Q12959; [1]): 5.64
pKd (PCLO, Q9Y6V0; [1]): below the threshold
pKd (MPP7, Q5T2T1; [1]): below the threshold

EMDRRPATVV [PLCB4, Q15147]
pKd (HTRA4, P83105; [1]): 3.6
pKd (MAST2, Q6P0Q8; [1]): 3.89
pKd (RHPN1, Q8TCX5; [1]): 3.74
pKd (LIN7A, O14910; [1]): below the threshold
pKd (GRIP2_4, Q9C0E4; [1]): below the threshold
pKd (ARHGEF12, Q9NZN5-2): 4.53
pKd (DFNB31_1, Q9P202; [1]): 3.53
pKd (PICK1, Q9NRD5; [1]): below the threshold
pKd (LAP2, Q96RT1; [1]): below the threshold
pKd (DLG4_1, P78352; [1]): 4.13
pKd (MAGI1_2, Q96QZ7; [1]): below the threshold
pKd (PARD3_3, Q8TEW0): below the threshold
pKd (RADIL, Q96JH8; [1]): 3.99
pKd (NHERF3_4, Q5T2W1; [1]): below the threshold
pKd (GRIP1_3, Q9Y3R0; [1]): below the threshold
pKd (LRRC7, Q96NW7; [1]): below the threshold
pKd (PDZRN3_1, Q9UPQ7; [1]): 4.08
pKd (IL16_1, Q14005; [1]): below the threshold
pKd (PCLO, Q9Y6V0; [1]): 3.71
pKd (MPP7, Q5T2T1; [1]): below the threshold

NDPAWDETNL [ARHGEF7, Q14155;Q14155-1]
pKd (HTRA4, P83105; [1]): below the threshold
pKd (NHERF3_1, Q5T2W1; [1]): 4.26
pKd (MAST2, Q6P0Q8; [1]): 5.98
pKd (RHPN1, Q8TCX5; [1]): 4.6
pKd (LIN7A, O14910; [1]): below the threshold
pKd (Inadl_5, Q8NI35; [1]): below the threshold
pKd (GRIP2_4, Q9C0E4; [1]): below the threshold
pKd (ARHGEF12, Q9NZN5-2): 4.03
pKd (DFNB31_1, Q9P202; [1]): 4.07
pKd (PICK1, Q9NRD5; [1]): below the threshold
pKd (LAP2, Q96RT1; [1]): 4.46
pKd (DLG4_1, P78352; [1]): below the threshold
pKd (MAGI1_2, Q96QZ7; [1]): below the threshold
pKd (PARD3_3, Q8TEW0): 4.16
pKd (RADIL, Q96JH8; [1]): below the threshold
pKd (NHERF3_4, Q5T2W1; [1]): below the threshold
pKd (GRIP1_3, Q9Y3R0; [1]): below the threshold
pKd (PDZRN3_1, Q9UPQ7; [1]): 3.92
pKd (Inadl_2, Q8NI35; [1]): below the threshold
pKd (IL16_1, Q14005; [1]): below the threshold
pKd (DLG1_2, Q12959; [1]): below the threshold
pKd (PCLO, Q9Y6V0; [1]): below the threshold
pKd (MPP7, Q5T2T1; [1]): below the threshold

LSDPSVSTVV [GRIN1, Q05586;Q05586-2]
pKd (HTRA4, P83105; [2]): below the threshold
pKd (NHERF3_1, Q5T2W1; [2]): below the threshold
pKd (MAST2, Q6P0Q8; [2]): 4.25
pKd (RHPN1, Q8TCX5; [2]): 4.47
pKd (LIN7A, O14910; [2]): below the threshold
pKd (Inadl_5, Q8NI35; [2]): below the threshold
pKd (GRIP2_4, Q9C0E4; [2]): below the threshold
pKd (DFNB31_1, Q9P202; [2]): below the threshold
pKd (PICK1, Q9NRD5; [2]): below the threshold
pKd (LAP2, Q96RT1; [2]): below the threshold
pKd (DLG4_1, P78352; [2]): 4.1
pKd (MAGI1_2, Q96QZ7; [2]): below the threshold
pKd (RADIL, Q96JH8; [2]): 3.98
pKd (NHERF3_4, Q5T2W1; [2]): below the threshold
pKd (GRIP1_3, Q9Y3R0; [2]): below the threshold
pKd (LRRC7, Q96NW7; [2]): below the threshold
pKd (PDZRN3_1, Q9UPQ7; [2]): below the threshold
pKd (Inadl_2, Q8NI35; [2]): below the threshold
pKd (IL16_1, Q14005; [2]): below the threshold
pKd (DLG1_2, Q12959; [2]): 4.51
pKd (PCLO, Q9Y6V0; [2]): below the threshold
pKd (MPP7, Q5T2T1; [2]): below the threshold

PRVKPQRSKV [PPP1R13L, Q8WUF5]
pKd (HTRA4, P83105; [1]): below the threshold
pKd (NHERF3_1, Q5T2W1; [1]): below the threshold
pKd (MAST2, Q6P0Q8; [1]): 3.82
pKd (RHPN1, Q8TCX5; [1]): below the threshold
pKd (LIN7A, O14910; [1]): below the threshold
pKd (Inadl_5, Q8NI35; [1]): below the threshold
pKd (GRIP2_4, Q9C0E4; [1]): below the threshold
pKd (ARHGEF12, Q9NZN5-2): 3.54
pKd (DFNB31_1, Q9P202; [1]): below the threshold
pKd (PICK1, Q9NRD5; [1]): below the threshold
pKd (LAP2, Q96RT1; [1]): below the threshold
pKd (DLG4_1, P78352; [1]): 3.54
pKd (MAGI1_2, Q96QZ7; [1]): 3.72
pKd (PARD3_3, Q8TEW0): below the threshold
pKd (RADIL, Q96JH8; [1]): below the threshold
pKd (NHERF3_4, Q5T2W1; [1]): below the threshold
pKd (GRIP1_3, Q9Y3R0; [1]): below the threshold
pKd (LRRC7, Q96NW7; [1]): below the threshold
pKd (PDZRN3_1, Q9UPQ7; [1]): below the threshold
pKd (Inadl_2, Q8NI35; [1]): below the threshold
pKd (IL16_1, Q14005; [1]): below the threshold
pKd (DLG1_2, Q12959; [1]): below the threshold
pKd (PCLO, Q9Y6V0; [1]): below the threshold
pKd (MPP7, Q5T2T1; [1]): below the threshold
